PMC11211510, “Sequence-specific dynamic DNA bending explains mitochondrial TFAM’s dual role in DNA packaging and transcription initiation”

Tests used:
TFAM [1] = target: T1, TFAM (UniProt Q00059 43-245); assay: fluorescence anisotropy; 10 mM Mg acetate; apparent Kd; 50 mM Tris acetate pH 7.5, 100 mM Na glutamate, 50 mM NaCl, 10 mM Mg acetate, 0.5 mM TCEP, 0.01% Tween 20, 0.1 mg/ml BSA, 25 °C; 5 nM DNA, 0-75 nM TFAM; conditions: protein: recombinant; tags: N-terminal 6xHis, TEV-cleaved; label: fluorescein (FITC) at 3' end of template strand; blunt
T1 sequence: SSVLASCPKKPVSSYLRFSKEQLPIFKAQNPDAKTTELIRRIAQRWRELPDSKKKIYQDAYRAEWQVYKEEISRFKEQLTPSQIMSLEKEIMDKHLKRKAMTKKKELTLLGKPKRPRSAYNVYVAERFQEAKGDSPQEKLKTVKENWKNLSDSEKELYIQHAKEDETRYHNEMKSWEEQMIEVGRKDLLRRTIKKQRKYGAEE

[2] = target: T2, TFAM-ΔC26 (C-tail deletion) (UniProt Q00059 43-220); assay: fluorescence anisotropy; 10 mM Mg acetate; 50 mM Tris acetate pH 7.5, 100 mM Na glutamate, 50 mM NaCl, 10 mM Mg acetate, 0.5 mM TCEP, 0.01% Tween 20, 0.1 mg/ml BSA, 25 °C; 5 nM DNA, 0-75 nM TFAM; conditions: protein: recombinant; tags: SUMO fusion, cleaved; label: fluorescein (FITC) at 3' end of template strand; blunt
T2 sequence: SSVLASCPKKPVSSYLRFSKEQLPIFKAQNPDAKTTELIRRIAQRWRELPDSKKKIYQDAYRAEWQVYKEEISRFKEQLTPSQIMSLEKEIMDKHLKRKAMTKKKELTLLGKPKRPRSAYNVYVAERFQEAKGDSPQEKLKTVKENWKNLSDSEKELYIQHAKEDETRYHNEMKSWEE

TFAM [3] = target: T1, TFAM; assay: smFRET; bending equilibrium K(F/P) 24.6 ± 7.6; 50 mM Tris acetate pH 7.5, 100 mM Na glutamate, 50 mM NaCl, 10 mM Mg acetate, 0.5 mM TCEP, 0.01% Tween 20, 0.1 mg/ml BSA, 25 °C; 5 nM DNA, 0-75 nM TFAM; conditions: protein: recombinant; tags: N-terminal 6xHis, TEV-cleaved; label: Atto565 at 5' non-template, Atto647N at 5' template; blunt
TFAM [4] = target: T1, TFAM; assay: smFRET; bending equilibrium K(F/P) 1.70 ± 0.74; 50 mM Tris acetate pH 7.5, 100 mM Na glutamate, 50 mM NaCl, 10 mM Mg acetate, 0.5 mM TCEP, 0.01% Tween 20, 0.1 mg/ml BSA, 25 °C; 5 nM DNA, 0-75 nM TFAM; conditions: protein: recombinant; tags: N-terminal 6xHis, TEV-cleaved; label: Atto565 at 5' non-template, Atto647N at 5' template; blunt
TFAM [5] = target: T1, TFAM; assay: smFRET; bending equilibrium K(F/P) 0.59 ± 0.24; 50 mM Tris acetate pH 7.5, 100 mM Na glutamate, 50 mM NaCl, 10 mM Mg acetate, 0.5 mM TCEP, 0.01% Tween 20, 0.1 mg/ml BSA, 25 °C; 5 nM DNA, 0-75 nM TFAM; conditions: protein: recombinant; tags: N-terminal 6xHis, TEV-cleaved; label: Atto565 at 5' non-template, Atto647N at 5' template; blunt

B1: LSP (-41 to -12), fluorescein (dsDNA)
DNA 1: TGTGTTAGTTGGGGGGTGACTGTTAAAAGT
DNA 2: ACTTTTAACAGTCACCCCCCAACTAACACA
B1 gave a Kd (TFAM [1]) of roughly 9 nM.

B2: HSP (-41 to -12), fluorescein (dsDNA)
DNA 1: CACACCGCTGCTAACCCCATACCCCGAACC
DNA 2: GGTTCGGGGTATGGGGTTAGCAGCGGTGTG
B2 showed a Kd (TFAM [1]) of roughly 43 nM and a Kd [2] of roughly 100 nM.

B3: NS (non-specific), fluorescein (dsDNA)
DNA 1: TAGCAGGAGCAGGAACAGGATGAACAAGCA
DNA 2: TGCTTGTTCATCCTGTTCCTGCTCCTGCTA
With B3 the Kd (TFAM [1]) was roughly 44 nM and the Kd [2] was roughly 100 nM.

B4: LSP, Atto565/Atto647N (dsDNA)
DNA 1: TGTGTTAGTTGGGGGGTGACTGTTAAAAGT
DNA 2: ACTTTTAACAGTCACCCCCCAACTAACACA
modifications: biotin-2xPEG18 at 3' end of template
B4: binds (TFAM [3]).

B5: HSP, Atto565/Atto647N (dsDNA)
DNA 1: CACACCGCTGCTAACCCCATACCCCGAACC
DNA 2: GGTTCGGGGTATGGGGTTAGCAGCGGTGTG
modifications: biotin-2xPEG18 at 3' end of template
B5: binds (TFAM [4]).

B6: NS, Atto565/Atto647N (dsDNA)
DNA 1: TAGCAGGAGCAGGAACAGGATGAACAAGCA
DNA 2: TGCTTGTTCATCCTGTTCCTGCTCCTGCTA
modifications: biotin-2xPEG18 at 3' end of template
B6: binds (TFAM [5]).
